In patent US8026218 (UNIVERSITY OF ARIZONA, dated 2011):
Where two headings read alike, the source gives them in different places. Square brackets hold non-standard residues; d marks the D form. Primed or numbered codes have the meaning given here. Ends that are not written are not given here. * marks the point of attachment. NH(3,5-(CF3)2-benzyl) = FC(F)(F)c1cc(CN*)cc(C(F)(F)F)c1; OBzl(3,5-(CF3)2) = FC(F)(F)c1cc(CO*)cc(C(F)(F)F)c1; O‑Bzl(CF3)2″ = C-terminal Bzl(CF3)2 ester; Phe(4-Cl) = N[C@@H](Cc1ccc(Cl)cc1)C(=O)O; Phe(4-F) = N[C@@H](Cc1ccc(F)cc1)C(=O)O; Aib = CC(C)(N)C(=O)O

B1: Tyr-DAla-Gly-Phe-γ-Abu-Trp-O-Bzl(CF3)2 (peptide)
peptide: Y[dA]GFXW-{O‑Bzl(CF3)2}
modifications: not fully specified (residue 5); printed as Tyr-DAla-Gly-Phe-γ-Abu-Trp-O-Bzl(CF3)2
notes: also called NP34
B2: DmtDAlaGlyPheNleProLeuTrpNHBn-3-(CF3) (peptide)
peptide: YAGFXPLW
modifications: Dmt at 1 (written Y); D-Ala at 2; Nle at 5 (written X); C-terminal NH-3-Bn(CF3) amide
notes: also called TY053

Assays:
[1] = molecular target: T1, rat NK1 receptor (rat, UniProt P14600 1-407); experiment: competition vs [3H]Substance P, rNK1 CHO cell membranes
T1 construct: whole, on cells; membrane preparations of the transfected cells were used; also called rNK1; rNK-1

[2] = molecular target: T2, human δ opioid receptor (human, UniProt P41143 1-372); experiment: competition vs [3H]DPDPE, hDOR cell membranes
T2 construct: whole, on cells; membrane preparations of the transfected cells were used; also called hDOR; DOR

[3] = molecular target: T3, rat µ opioid receptor (rat, UniProt P33535 1-398); experiment: competition vs [3H]DAMGO, rMOR cell membranes
T3 construct: whole, on cells; membrane preparations of the transfected cells were used; also called rMOR; MOR

[4] = molecular target: T3, rat µ opioid receptor; experiment: cell-based or functional assay
[5] = molecular target: T2, human δ opioid receptor; experiment: cell-based or functional assay
[6] = molecular target: T4, human NK1 receptor (human, UniProt P25103 1-407); experiment: competition vs [3H]Substance P, hNK1 CHO cell membranes
T4 construct: whole, on cells; membrane preparations of the transfected cells were used; also called hNK1; human neurokinin-1 receptor

[7] = molecular target: T5, µ opioid receptor of the guinea pig isolated ileum (guinea pig, UniProt P97266 1-98); experiment: cell-based or functional assay
[8] = molecular target: T2, human δ opioid receptor; experiment: competition vs [3H]DPDPE, hDOR cell membranes; remark: listed apart in the source
[9] = molecular target: T1, rat NK1 receptor; experiment: competition vs [3H]Substance P, rNK1 CHO cell membranes; remark: listed apart in the source
[10] = molecular target: T5, µ opioid receptor of the guinea pig …; experiment: cell-based or functional assay; remark: listed apart in the source
[11] = molecular target: T5, µ opioid receptor of the guinea pig …; experiment: cell-based or functional assay; remark: listed apart in the source
[12] = molecular target: T2, human δ opioid receptor; experiment: cell-based or functional assay; remark: listed apart in the source
[13] = molecular target: T1, rat NK1 receptor; experiment: competition vs [3H]Substance P, rNK1 CHO cell membranes; remark: listed apart in the source
[14] = molecular target: T5, µ opioid receptor of the guinea pig …; experiment: cell-based or functional assay; remark: listed apart in the source
[15] = molecular target: guinea pig NK1 receptor (guinea pig, UniProt P30547 1-407); experiment: cell-based or functional assay
[16] = molecular target: T3, rat µ opioid receptor; experiment: competition vs [3H]DAMGO, rMOR cell membranes; remark: listed apart in the source
[17] = molecular target: T3, rat µ opioid receptor; experiment: cell-based or functional assay; remark: listed apart in the source
[18] = molecular target: T2, human δ opioid receptor; experiment: cell-based or functional assay; remark: listed apart in the source
[19] = molecular target: T2, human δ opioid receptor; experiment: competition vs [3H]DPDPE, hDOR cell membranes; remark: listed apart in the source
[20] = molecular target: T1, rat NK1 receptor; experiment: competition vs [3H]Substance P, rNK1 CHO cell membranes; remark: listed apart in the source
[21] = molecular target: T4, human NK1 receptor; experiment: competition vs [3H]Substance P, hNK1 CHO cell membranes; remark: listed apart in the source
[22] = molecular target: T4, human NK1 receptor; experiment: as above; remark: listed apart in the source

T4 sequence (P25103 whole entry): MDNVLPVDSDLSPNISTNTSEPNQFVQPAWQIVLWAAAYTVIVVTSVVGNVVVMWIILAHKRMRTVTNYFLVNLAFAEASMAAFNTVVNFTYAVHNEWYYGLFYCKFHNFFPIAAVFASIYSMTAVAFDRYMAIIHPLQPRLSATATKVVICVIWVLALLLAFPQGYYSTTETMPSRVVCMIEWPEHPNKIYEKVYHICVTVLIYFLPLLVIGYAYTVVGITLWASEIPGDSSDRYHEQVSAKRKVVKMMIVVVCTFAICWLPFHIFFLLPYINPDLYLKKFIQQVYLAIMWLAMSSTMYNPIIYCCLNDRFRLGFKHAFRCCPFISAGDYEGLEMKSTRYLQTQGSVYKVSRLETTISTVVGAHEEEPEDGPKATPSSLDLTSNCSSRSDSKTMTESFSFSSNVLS
Chain of guinea pig NK1 receptor (P30547 whole entry): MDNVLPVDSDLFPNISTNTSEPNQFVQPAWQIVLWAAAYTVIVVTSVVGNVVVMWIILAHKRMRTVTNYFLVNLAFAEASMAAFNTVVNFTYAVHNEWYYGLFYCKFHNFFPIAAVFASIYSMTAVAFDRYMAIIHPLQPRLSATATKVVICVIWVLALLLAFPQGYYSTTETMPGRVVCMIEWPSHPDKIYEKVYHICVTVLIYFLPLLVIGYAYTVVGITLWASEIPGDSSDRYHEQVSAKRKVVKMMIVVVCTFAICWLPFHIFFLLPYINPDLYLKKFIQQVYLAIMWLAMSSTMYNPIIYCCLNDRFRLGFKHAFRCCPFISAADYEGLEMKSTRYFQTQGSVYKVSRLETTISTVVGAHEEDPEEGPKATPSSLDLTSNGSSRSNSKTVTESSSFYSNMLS
T5 sequence (P97266 whole entry): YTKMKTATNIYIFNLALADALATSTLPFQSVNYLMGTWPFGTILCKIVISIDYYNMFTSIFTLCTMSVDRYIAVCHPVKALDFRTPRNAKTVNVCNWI
T1 sequence (P14600 whole entry): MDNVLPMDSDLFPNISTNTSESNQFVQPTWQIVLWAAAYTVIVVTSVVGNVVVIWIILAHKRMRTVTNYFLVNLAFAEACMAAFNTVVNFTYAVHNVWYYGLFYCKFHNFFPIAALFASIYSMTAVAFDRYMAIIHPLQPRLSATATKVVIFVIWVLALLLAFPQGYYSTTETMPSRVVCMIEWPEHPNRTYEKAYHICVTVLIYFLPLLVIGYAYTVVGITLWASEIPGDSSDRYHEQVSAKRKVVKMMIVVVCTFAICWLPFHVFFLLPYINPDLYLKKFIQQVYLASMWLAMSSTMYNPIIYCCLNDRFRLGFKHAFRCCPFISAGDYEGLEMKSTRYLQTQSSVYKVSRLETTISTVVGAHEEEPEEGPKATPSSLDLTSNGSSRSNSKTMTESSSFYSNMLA
T3 sequence (P33535 whole entry): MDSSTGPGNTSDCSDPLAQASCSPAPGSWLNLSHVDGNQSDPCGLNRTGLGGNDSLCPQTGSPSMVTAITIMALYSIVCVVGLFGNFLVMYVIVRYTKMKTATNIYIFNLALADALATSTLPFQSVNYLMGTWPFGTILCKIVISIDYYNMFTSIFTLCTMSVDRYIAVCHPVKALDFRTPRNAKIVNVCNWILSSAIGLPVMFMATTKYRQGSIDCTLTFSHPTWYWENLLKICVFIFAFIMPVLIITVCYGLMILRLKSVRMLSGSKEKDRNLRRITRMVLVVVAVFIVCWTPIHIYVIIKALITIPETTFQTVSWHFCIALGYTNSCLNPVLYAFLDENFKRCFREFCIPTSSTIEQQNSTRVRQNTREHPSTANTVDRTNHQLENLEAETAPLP
T2 sequence (P41143 whole entry, stated change not applied): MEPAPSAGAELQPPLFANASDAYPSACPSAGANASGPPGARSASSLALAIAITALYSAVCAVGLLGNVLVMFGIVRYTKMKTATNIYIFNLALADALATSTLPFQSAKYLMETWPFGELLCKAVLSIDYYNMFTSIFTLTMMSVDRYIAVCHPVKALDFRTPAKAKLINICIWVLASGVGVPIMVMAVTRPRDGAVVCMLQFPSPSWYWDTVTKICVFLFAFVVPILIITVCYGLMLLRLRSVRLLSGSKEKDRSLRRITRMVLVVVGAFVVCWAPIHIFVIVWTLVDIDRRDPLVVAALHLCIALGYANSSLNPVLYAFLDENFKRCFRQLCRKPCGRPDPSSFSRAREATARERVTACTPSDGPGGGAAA

Binder	GPI/LMMP SP antagonist Ke [15] [nM]	Ki [16] [nM]	GTP binding Emax [17] [%]	GTP binding EC50 [18] [nM]	GTP binding Emax [18] [%]	Ki [19] [nM]	IC50 [20] [nM]	other results
B1								Ki [1]: 7.4 nM; Ki [2]: 25.4 nM; Ki [3]: 2.2 nM; GTP EMax [4]: 27; GTP EMax [5]: 40; Ki [6]: 1 pM
Y[dA]GFMPLW-{NH(3,5-(CF3)2-benzyl)} (also called TY027) [TyrDAlaGlyPheMetProLeuTrpNHBn(CF3)2]								GPI/LMMP IC50 [7]: 488 nM; LogIC50 [8]: -8.8; Ki [9]: 7.3 nM; LogIC50 [9]: -7.6; GPI (µ) IC50 [10]: 490 nM; GPI (µ) IC50 [11]: 490 nM; [35S]GTPγS binding EC50 [12]: 8.6 nM; [35S]GTPγS binding Emax [12]: 58%; [35S]GTPγS binding LogEC50 [12]: -8.1; Ki [13]: 7.27 nM
Y[dA]GF[dF]PLW-{OBzl(3,5-(CF3)2)} (also called TY007) [TyrDAlaGlyPheDPheProLeuTrpOBn(CF3)2]	69.6	410	23.6	16.7	22.9	110	66.7	GPI/LMMP, inhibition at 1 mM [14]: 9%; GTP binding EC50 [17]: 345 nM
Y[dA]GFFPLW-{OBzl(3,5-(CF3)2)} (also called TY003) [TyrDAlaGlyPhePheProLeuTrpOBn(CF3)2]	14.4	28.3	36.3	20.8	39	14.6	19.3	GPI/LMMP, inhibition at 1 mM [14]: 7%; GTP binding EC50 [17]: 58.7 nM
Y[dA]GFGPLW-{OBzl(3,5-(CF3)2)} (also: TFA salt, also called TY006) [TyrDAlaGlyPheGlyProLeuTrpOBn(CF3)2]	5.4	27	35.9	50.2	33.6	36.1	15.6	GPI/LMMP IC50 [14]: 384 nM; GTP binding EC50 [17]: 41.7 nM
Y[dA]GFLPLW-{OBzl(3,5-(CF3)2)} (also called TY004) [TyrDAlaGlyPheLeuProLeuTrpOBn(CF3)2]	19.4	23.3	44.5	9.6	42.5	5	20.9	GPI/LMMP IC50 [14]: 341 nM
Y[dA]G[Phe(4-F)]-{O‑3,5‑Bzl(CF3)2} (also called NP62) [Tyr-D-Ala-Gly-pFPhe-O-3′,5′(CF3)2-Bzl]								Ki [21]: 0.2 nM
Y[dA]GFPLW-{OBzl(3,5-(CF3)2)} (also called TY001) [TyrDAlaGlyPheProLeuTrpOBn(CF3)2]							21.7	
Y[dA]GF[Aib]W-{O‑Bzl(CF3)2″} (also called NP41) [Tyr-DAla-Gly-Phe-Aib-Trp-O-Bzl(CF3)2]								Ki [1]: 3.4 nM; Ki [2]: 24.2 nM; Ki [3]: 13.3 nM; GTP EMax [4]: 36; GTP EMax [5]: 65; Ki [6]: 8 pM
B2								Ki [22]: 1.04 nM
YAGFXPLW (D-Ala at 2; Nle at 5 (written X); C-terminal O-3,5-Bzl(CF3)2 ester, also called TY018) [TyrDAlaGlyPheNleProLeuTrpOBn(CF3)2]	7.9			4	131	1.8		GPI/LMMP IC50 [14]: 372 nM
Y[dA]G[Phe(4-Cl)]-{OBzl(3,5-(CF3)2)} (also called NP52) [Tyr-D-Ala-Gly-pClPhe-O-3′,5′(CF3)2-Bzl]								Ki [21]: 8.04 nM
